Data on 24 molecules can be found in US20070212355A1 (priority 2005, published 2007).

Data set [1] has as its target T1, mutated human GLP-2R (Homo sapiens, UniProt O95838, E512D/G511A/L513V).
T1 construct: expressed in transfected cells; host or cells: HEK 293E clonal cell line
T1 sequence (O95838 1-553 G511A/E512D/L513V): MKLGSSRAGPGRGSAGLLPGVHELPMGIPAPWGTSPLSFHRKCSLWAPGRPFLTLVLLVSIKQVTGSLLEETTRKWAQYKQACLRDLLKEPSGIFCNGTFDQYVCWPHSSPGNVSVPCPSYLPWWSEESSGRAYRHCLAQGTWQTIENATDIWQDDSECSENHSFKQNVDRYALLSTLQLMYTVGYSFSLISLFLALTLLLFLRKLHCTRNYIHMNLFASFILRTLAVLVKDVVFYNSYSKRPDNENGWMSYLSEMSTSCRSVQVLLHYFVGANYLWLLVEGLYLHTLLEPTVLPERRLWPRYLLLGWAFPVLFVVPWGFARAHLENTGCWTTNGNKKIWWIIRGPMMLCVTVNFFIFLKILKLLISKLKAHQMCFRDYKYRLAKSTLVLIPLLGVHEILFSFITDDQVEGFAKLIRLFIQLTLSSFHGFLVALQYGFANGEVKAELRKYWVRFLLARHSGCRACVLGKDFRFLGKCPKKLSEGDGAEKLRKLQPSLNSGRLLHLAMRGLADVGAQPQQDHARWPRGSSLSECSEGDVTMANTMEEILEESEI
The data set is described as follows: cAMP expression assay in HEK 293E clonal cell line expressing mutated human GLP-2R. In kind it is cell-based. Conditions: for activity relative to wild type GLP-2 (times less): from Table 5 EC50 values. An excerpt: To achieve this goal, a clonal cell line expressing a mutated human GLP-2R was generated by transfecting HEK 293E cells. The mutated human GLP-2R differs from the wild-type human GLP-2R (SEQ ID NO: 35) at three amino acid positions within the C-terminal intracellular region (SEQ ID NO: 36).
The cAMP expression was quantitated using the cAMP Direct Screen System (Cat. No. CSD 200, Applied Biosystems, Bedford, Mass.).
This assay was based on the cAMP Direct Screen System from Applied Biosystems utilizing a cell line expressing mutated huGLP-2R in HEK 293E cells. Peptide at concentrations ranging from 0.01 nM to 1.0 uM in PBS with 0.5% BSA was added to ˜50,000 cells suspended in 96-well plates. After a 30-minute incubation at 37° C., Lysis Buffer followed by luminescence reagents (Applied Biosystems) was added according to the manufacturers' procedures (Applied Biosystems Luminescence protocol: cAMP-Screen Direct System). Luminescence was quantitated using a TopCount liquid scintillation analyzer (PerkinElmer), and data was processed using Softmax software (Molecular Devices Corporation).

Data set [2] in a line: SEC-SLS self-association of peptides in PBS (pH 7.5). In kind it is physicochemical. As to conditions: 1 mg/ml. The procedure:
The self-association poses a challenge to the development and manufacturing of a homogeneous therapeutic.
Solution molecular weight of the peptides was measured by SEC-SLS. Briefly, peptide solutions in PBS (pH 7.5) at 0.4 to 2.0 mg/mL were fractionated over a Superdex peptide column (Amersham Pharmacia). The eluted peaks were monitored by static light scattering at 690 nm and solution molecular weight was determined at UV 280 nm using the Astra software package (Wyatt Inc.).

The nature of data set [3]: CD spectra secondary structure of peptides. In kind it is physicochemical. Conditions: 0.2 mg/mL in PBS, 25° C. The procedure: The secondary structures of tested peptides were determined using 0.2 mg/mL peptide solutions in PBS. Briefly, CD spectra were collected in triplicate at 1 nm intervals at 25° C. in 0.1 cm path length cell. Secondary structures were determined by fitting of the CD spectra using CD spectra software (CD Spectra Deconvolution software 2.1). All tested peptides contained peaks corresponding to the presence of alpha helices.

In data set [4] the target is mutated human GLP-2R (human) (UniProt O95838). Kind of data set: cell-based or functional assay.
Data set [5] deals with T2, mutated human GLP-2R (human, UniProt O95838 1-553).
T2 chain: T1 sequence (O95838 1-553 G511A/E512D/L513V)
The data set is described as follows: cell-based or functional assay.

Data set [6] deals with T2, mutated human GLP-2R. Kind of data set: cell-based or functional assay.
Data set [7] concerns the molecule itself. Kind of data set: SEC-SLS, self-association in PBS pH 7.5.
The mark [8] stands for this setting: Table 1, mimetibodies with variable linker length / V2 variant, read-out: EC50.
The mark [9] stands for this setting: Table 2, mimetibodies with Pro substitution, read-out: EC50.

Positions count from the first letter of the chain named. Names and notes keep the numbering of the source. Read-outs that look alike come from different tables or passages of the source. Ends that are not written are not given here.

Consider “HGDGSFSDEMNTILDGQAARDFINWLIQTKITD [SEQ ID NO: 55]”, for which the “activity relative to wild type GLP-2 (times less)” value in data set [1] is recorded as 2 ×. The “SEC-SLS elution / self-association state” value in data set [2] is reported as “mainly monomeric peptide”. In addition, the “Random coil (percentage)” value in data set [3] was 41.4%. Also, the “Helix (percentage of helical structure)” value in data set [3] (listed as GLP-2(A2G, N16G, L17Q)) was 17.0%.

Take “HGDGSFSDEMNTILDNQAARDFINWLIQTKITD [SEQ ID NO: 54]”: the “activity relative to wild type GLP-2 (times less)” value in data set [1] is reported as 3 ×. In data set [2], the “SEC-SLS elution / self-association state” value is given as “mainly monomeric peptide”. Further, the “Random coil (percentage)” value in data set [3] is given as 41.8%. Moreover, in data set [3] (listed as GLP-2(A2G, L17Q)), the “Helix (percentage of helical structure)” value was 16.9%.

For orientation: EC50 means the concentration that produces a half-maximal response. On to “HSDGSFSDEMNTILDNLAARDFINWLIQTKITD [SEQ ID NO: 2, reference compound]”, for which the EC50 in data set [1] (Example 2, 30 minutes incubation, mimetibodies vs corresponding peptides, read-out: EC50, stimulation of cAMP expression) was 0.5 nM.

As for “SEQ ID NO: 6: A2G GLP-2 mimetibody linker variant; core HGDGSFSDEMNTILDNLAARDFINWLIQTKITDGGGGSCPPCP (cysteine pairing not given here; also: core of a mimetibody, fused to further protein chains)”, the EC50 in data set [1] (setting [8]) was 40 nM.

In the case of “SEQ ID NO: 7: A2G GLP-2 mimetibody linker variant; core HGDGSFSDEMNTILDNLAARDFINWLIQTKITDGGGGSGGGGSCPPCP (cysteine pairing not given here; also: core of a mimetibody, fused to further protein chains)”, in data set [1] (setting [8]), the EC50 amounted to 22.5 nM.

For the molecule “SEQ ID NO: 8: A2G GLP-2 mimetibody linker variant; core HGDGSFSDEMNTILDNLAARDFINWLIQTKITDGGGGSGGGGSGGGGSCPPCP (cysteine pairing not given here; also: core of a mimetibody, fused to further protein chains)”, the concentration for a half-maximal effect (EC50) in data set [1] (setting [8]) was determined as 12.7 nM.

Turning to “SEQ ID NO: 9: A2G GLP-2 mimetibody linker variant; core HGDGSFSDEMNTILDNLAARDFINWLIQTKITDGGGGSGGGGSGGGGSGGGGSCPPCP (cysteine pairing not given here; also: core of a mimetibody, fused to further protein chains)”, the EC50 in data set [1] (setting [8]) came out at 4.6 nM.

As for “SEQ ID NO: 11: A2G GLP-2 mimetibody V2 region variant; core […] (HGDGSFSDEMNTILDNLAARDFINWLIQTKITDGSGGGSGALVAVSSESKYGPPCPPCP; chains of the parent or of the whole protein)”, the EC50 in data set [1] (setting [8]) came to 3.1 nM.

As to “SEQ ID NO: 42: GLP-2 mimetibody Pro substitution variant; core HGDGSFSDEMNTILDNLAARDFINWLIQTKITDGSGGGSGALVPVSSESKYGPPCPPCP (Mimetibody)”, the EC50 in data set [1] (setting [9]) stood at 3.6 nM.

Regarding “SEQ ID NO: 45: GLP-2 mimetibody Pro substitution variant; core […] (HGDGSFSDEMNTILDNLAARDFINWLIQTKITDGSGGGSGALVAVSSESKPGPPCPPCP)”, the EC50 in data set [1] (setting [9]) was found to be 5.8 nM.

“SEQ ID NO: 79: GLP-1 peptide included as control in the characterization of the analogs [reference compound]”: in data set [2], the “SEC-SLS elution / self-association state” value is listed as “single peak with molecular weight within the expected monomer size”. For the same molecule, in data set [3], the “Helix (percentage of helical structure)” value is 16.8% and the “Random coil (percentage)” value stood at 41.9%.

B1: SEQ ID NO: 10: A2G GLP-2 mimetibody linker variant; core HGDGSFSDEMNTILDNLAARDFINWLIQTKITDGGGGSGGGGSGGGGSGGGGSGGGGSCPPCP (protein)
chain: HGDGSFSDEMNTILDNLAARDFINWLIQTKITDGGGGSGGGGSGGGGSGGGGSGGGGSCPPCP
modifications: chains of the parent or of the whole protein
On to B1, for which the EC50 in data set [1] (setting [8]) is 2.1 nM.

B2: A2G GLP-2 mimetibody linker length variant SEQ ID NO: 7 (Fc fusion, part only; not given: Fc CH2 and CH3 domains, part only)
chain, part: HGDGSFSDEMNTILDNLAARDFINWLIQTKITDGGGGSGGGGSCPPCP
modifications: cysteine pairing not given here; also: partial core, CH2-CH3 domains follow in the full mimetibody
Molecule B2 yielded an EC50 (nM), cAMP expression assay in data set [4] of 22.5 nM.

B3: GLP-2(A2G, N16G, L17Q) (peptide)
peptide: HGDGSFSDEMNTILDGQAARDFINWLIQTKITD
notes: Synthetic analog of human GLP-2, >95% purity; also called GLP-2(A2G,N16G, L17Q) peptide
As for B3, the “activity in cAMP expression assay, fold less than wild type GLP-2” value in data set [5] turned out to be 2 fold. Moreover, the “cAMP in Vitro EC50 values” in data set [6] came to 3.5 nM. Also, in data set [7], the binding result is on record as “no binding (tested: 1 mg/ml)”.

B4: A2S GLP-2 peptide (peptide)
peptide: B3 peptide with G2S, G16N, Q17L
With B4, the “EC50, cAMP expression” value in data set [5] is 0.5 nM.

B5: A2S GLP-2 IgG4 mimetibody (Fc fusion)
chain: HSDGSFSDEMNTILDNLAARDFINWLIQTKITDGSGGGSGTLVTVSSESKYGPPCPPCPAPEAAGGPSVFLFPPKPDTLMISRTPEVTCVVVDVSQEDPEVQFNWYVDGVEVHNAKTKPREEQFNSTYRVVSVLTVLHQDWLNGKEYKCKVSNKGLPSSIEKTISKAKGQPREPQVYTLPPSQEEMTKNQVSLTCLVKGFYPSDIAVEWESNGQPENNYKTTPPVLDSDGSFFLYSRLTVDKSRWQEGNVFSCSVMHEALHNHYTQKSLSLSLGK
With B5, in data set [5], the “EC50, cAMP expression” value came to 2.2 nM and the “potency in cAMP expression assay, fold less than the corresponding peptide” value was approximately 4 fold.

B6: A2G GLP-2 mimetibody linker length variant SEQ ID NO: 8 (Fc fusion, part only; not given: CH2 and CH3 domains, part only)
chain, part: HGDGSFSDEMNTILDNLAARDFINWLIQTKITDGGGGSGGGGSGGGGSCPPCP
modifications: cysteine pairing not given here; also: partial core, CH2-CH3 domains follow in the full mimetibody
B6 displayed an EC50 (nM), cAMP expression assay in data set [4] of 12.7 nM.

B7: A2G GLP-2 mimetibody linker length variant SEQ ID NO: 9 (Fc fusion, part only; not given: CH2 and CH3 domains, part only)
chain, part: HGDGSFSDEMNTILDNLAARDFINWLIQTKITDGGGGSGGGGSGGGGSGGGGSCPPCP
modifications: cysteine pairing not given here; also: partial core, CH2-CH3 domains follow in the full mimetibody
Turning to B7, the EC50 (nM), cAMP expression assay in data set [4] was found to be 4.6 nM.

B8: A2G GLP-2 mimetibody linker length variant SEQ ID NO: 6 (Fc fusion, part only; not given: CH2 and CH3 domains, part only)
chain, part: HGDGSFSDEMNTILDNLAARDFINWLIQTKITDGGGGSCPPCP
modifications: cysteine pairing not given here; also: partial core, CH2-CH3 domains follow in the full mimetibody
Take B8: the EC50 (nM), cAMP expression assay in data set [4] amounted to 40 nM.

B9: A2G GLP-2 mimetibody V2 region variant SEQ ID NO: 11 (Fc fusion, not shown: a dimerising Fc or GST)
chain: HGDGSFSDEMNTILDNLAARDFINWLIQTKITDGSGGGSGALVAVSSESKYGPPCPPCP
Turning to B9, the EC50 (nM), cAMP expression assay in data set [4] turned out to be 3.1 nM.

B10: GLP-2 mimetibody Pro substitution variant SEQ ID NO: 43 (Fc fusion, not shown: a dimerising Fc or GST)
chain: B9 chain with S46P
Regarding B10, in data set [4], the EC50 (nM), cAMP expression assay is 4.8 nM.

B11: GLP-2 mimetibody Pro substitution variant SEQ ID NO: 44 (Fc fusion, not shown: a dimerising Fc or GST)
chain: B9 chain with S47P
Molecule B11 had an EC50 (nM), cAMP expression assay in data set [4] of 7.7 nM.

B12: GLP-2 mimetibody Pro substitution variant SEQ ID NO: 42 (Fc fusion, not shown: a dimerising Fc or GST)
chain: B9 chain with A44P
In data set [4], B12 showed an EC50 (nM), cAMP expression assay of 3.6 nM.

B13: GLP-2 mimetibody Pro substitution variant SEQ ID NO: 45 (Fc fusion, not shown: a dimerising Fc or GST)
chain: B9 chain with Y51P
Take B13: the EC50 (nM), cAMP expression assay in data set [4] was 5.8 nM.
